Experimental findings from paper PMC9969694, “YULINK regulates vascular formation in zebrafish and HUVECs” (Biological Research, 2023) are described below.

Common to all, as to assay: FRET or BRET; FLIM-FRET in HEK-293 T cells 48 h after co-transfection; AcGFP donor on YULINK (full-length or truncated), DsRed acceptor on the partner; mean fluorescence lifetime τ of AcGFP and FRET efficiency E; AcGFP-YULINK alone about 2.71 ns
One assay deals with AcGFP-YULINKΔN (human).
A further assay concerns the target AcGFP-YULINKΔC (human).
For assay [1], the target named is T1, AcGFP-YULINK (full-length) (human, UniProt Q9NXC5-1 1-875).
T1 construct: YULINK, full-length, conjugated with AcGFP; also called full-length AcGFP-YULINK; source: HEK-293 T, co-transfected, in live cells
T1 sequence (looked up): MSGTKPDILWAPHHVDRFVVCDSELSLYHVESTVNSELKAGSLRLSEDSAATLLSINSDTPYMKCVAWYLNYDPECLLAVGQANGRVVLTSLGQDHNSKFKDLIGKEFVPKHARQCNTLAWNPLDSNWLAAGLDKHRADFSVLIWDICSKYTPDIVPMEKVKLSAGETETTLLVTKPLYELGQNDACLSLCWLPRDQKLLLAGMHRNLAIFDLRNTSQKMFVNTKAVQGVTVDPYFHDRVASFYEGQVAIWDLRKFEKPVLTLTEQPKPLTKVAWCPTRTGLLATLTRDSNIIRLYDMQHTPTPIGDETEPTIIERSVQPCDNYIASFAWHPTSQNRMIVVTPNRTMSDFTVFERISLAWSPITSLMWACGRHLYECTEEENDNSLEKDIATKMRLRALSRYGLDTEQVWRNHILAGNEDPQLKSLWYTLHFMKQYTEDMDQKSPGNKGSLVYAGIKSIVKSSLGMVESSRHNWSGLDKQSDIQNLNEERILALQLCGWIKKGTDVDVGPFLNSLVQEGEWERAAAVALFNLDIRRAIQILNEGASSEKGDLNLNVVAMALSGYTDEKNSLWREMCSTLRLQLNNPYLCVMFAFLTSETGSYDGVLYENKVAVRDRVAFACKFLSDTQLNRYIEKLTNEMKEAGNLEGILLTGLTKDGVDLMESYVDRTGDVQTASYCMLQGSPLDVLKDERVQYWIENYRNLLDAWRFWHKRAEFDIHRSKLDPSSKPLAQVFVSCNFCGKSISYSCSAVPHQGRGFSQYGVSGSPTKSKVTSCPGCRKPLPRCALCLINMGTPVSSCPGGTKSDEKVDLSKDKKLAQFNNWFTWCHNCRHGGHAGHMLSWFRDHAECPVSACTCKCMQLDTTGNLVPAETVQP
Particulars: partners not purified.

In the assay with AcGFP-YULINKΔN (human), “DsRed-TICAM2 (from UniProt Q86XR7 1-235) (natural protein)” yielded an FRET efficiency E of 19.6% and a mean fluorescence lifetime τ of the donor of 2.18 ns. Moreover, in the assay with AcGFP-YULINKΔC (human), the FRET efficiency E was 17.7% and the mean fluorescence lifetime τ of the donor was determined as 2.23 ns.

In the assay with AcGFP-YULINKΔN (human), “DsRed-RAB33B (from UniProt Q9H082 1-229) (natural protein)” had an FRET efficiency E of 36.5% and a mean fluorescence lifetime τ of the donor of 1.72 ns.

B1: DsRed-EPS15 (natural protein, human, UniProt P42566 1-896, looked up)
chain: MAAAAQLSLTQLSSGNPVYEKYYRQVDTGNTGRVLASDAAAFLKKSGLPDLILGKIWDLADTDGKGILNKQEFFVALRLVACAQNGLEVSLSSLNLAVPPPRFHDTSSPLLISGTSAAELPWAVKPEDKAKYDAIFDSLSPVNGFLSGDKVKPVLLNSKLPVDILGRVWELSDIDHDGMLDRDEFAVAMFLVYCALEKEPVPMSLPPALVPPSKRKTWVVSPAEKAKYDEIFLKTDKDMDGFVSGLEVREIFLKTGLPSTLLAHIWSLCDTKDCGKLSKDQFALAFHLISQKLIKGIDPPHVLTPEMIPPSDRASLQKNIIGSSPVADFSAIKELDTLNNEIVDLQREKNNVEQDLKEKEDTIKQRTSEVQDLQDEVQRENTNLQKLQAQKQQVQELLDELDEQKAQLEEQLKEVRKKCAEEAQLISSLKAELTSQESQISTYEEELAKAREELSRLQQETAELEESVESGKAQLEPLQQHLQDSQQEISSMQMKLMEMKDLENHNSQLNWCSSPHSILVNGATDYCSLSTSSSETANLNEHVEGQSNLESEPIHQESPARSSPELLPSGVTDENEVTTAVTEKVCSELDNNRHSKEEDPFNVDSSSLTGPVADTNLDFFQSDPFVGSDPFKDDPFGKIDPFGGDPFKGSDPFASDCFFRQSTDPFATSSTDPFSAANNSSITSVETLKHNDPFAPGGTVVAASDSATDPFASVFGNESFGGGFADFSTLSKVNNEDPFRSATSSSVSNVVITKNVFEETSVKSEDEPPALPPKIGTPTRPCPLPPGKRSINKLDSPDPFKLNDPFQPFPGNDSPKEKDPEIFCDPFTSATTTTNKEADPSNFANFSAYPSEEDMIEWAKRESEREEEQRLARLNQQEQEDLELAIALSKSEISEA
notes: EPS15 conjugated with DsRed; also called DsRed-ESP15; source: HEK-293 T, co-transfected, in live cells
On to B1, for which, in assay [1], the “FRET efficiency E” value was determined as 11.4% and the “mean fluorescence lifetime τ of the donor” value was found to be 2.4 ns.

B2: DsRed-RAB33B (natural protein, human, UniProt Q9H082 1-229, looked up)
chain: MAEEMESSLEASFSSSGAVSGASGFLPPARSRIFKIIVIGDSNVGKTCLTYRFCAGRFPDRTEATIGVDFRERAVEIDGERIKIQLWDTAGQERFRKSMVQHYYRNVHAVVFVYDMTNMASFHSLPSWIEECKQHLLANDIPRILVGNKCDLRSAIQVPTDLAQKFADTHSMPLFETSAKNPNDNDHVEAIFMTLAHKLKSHKPLMLSQPPDNGIILKPEPKPAMTCWC
notes: RAB33B conjugated with DsRed; source: HEK-293 T, co-transfected, in live cells
Consider B2, for which, in assay [1], the “FRET efficiency E” value was 8.1% and the “mean fluorescence lifetime τ of the donor” value came out at 2.49 ns.
